Experimental data reported in PMC8809517, “Cofactor-independent RNA editing by a synthetic S-type PPR protein”.
Positions count from the first letter of the chain named.

T1: GFP-9S library array, motif 4 ND N98E;D124Y (synthetic construct, N98E;D124Y)
T1 chain: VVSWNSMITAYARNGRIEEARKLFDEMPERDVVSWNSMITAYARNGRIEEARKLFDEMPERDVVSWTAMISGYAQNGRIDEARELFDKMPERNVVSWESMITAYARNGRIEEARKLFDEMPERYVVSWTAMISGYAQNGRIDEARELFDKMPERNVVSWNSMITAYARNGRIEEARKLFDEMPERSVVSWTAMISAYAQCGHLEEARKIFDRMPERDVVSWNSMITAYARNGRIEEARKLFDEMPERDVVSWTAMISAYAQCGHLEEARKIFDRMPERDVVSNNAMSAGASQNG

T2: GFP-9S library array, motif 4 ND N98K;D124I (synthetic construct, N98K;D124I)
T2 chain: T1 chain with E98K, Y124I

T3: GFP-9S library array, motif 4 ND N98A;D124N (synthetic construct, N98A;D124N)
T3 chain: T1 chain with E98A, Y124N

T4: GFP-9S library array, motif 4 ND N98Y;D124T (synthetic construct, N98Y;D124T)
T4 chain: T1 chain with E98Y, Y124T

T5: GFP-9S library array, motif 4 ND N98S;D124S (synthetic construct, N98S;D124S)
T5 chain: T1 chain with E98S, Y124S


How the values were obtained:
Experiment in all cases: high-throughput RNA pulldown from lysate on Ni-NTA beads; HRP: 50 mM Tris pH 8, 150 mM NaCl, 1 mM beta-mercaptoethanol, 50 ug/ml BSA, 3 ug/ml yeast RNA, 0.5% heparin; ITC and FP: Tris pH 8, 200 mM KCl, 5% glycerol; MST: 50 mM Tris pH 8, 200 mM NaCl, 1 mM DTT, BSA, heparin, 0.05% Tween 20
Details in all cases: tags: N-terminal His-eGFP
[1] = target: T1, GFP-9S library array, motif 4 ND …
[2] = target: T2, GFP-9S library array, motif 4 ND …
[3] = target: T3, GFP-9S library array, motif 4 ND …
[4] = target: T4, GFP-9S library array, motif 4 ND …
[5] = target: T5, GFP-9S library array, motif 4 ND …

Binder | Kd ([1]; label: 5' IRDye 800CW) [nM] | Kd ([2]; label: 5' IRDye 800CW) [nM] | Kd ([3]; label: 5' IRDye 800CW) [nM] | Kd ([4]; label: 5' IRDye 800CW) [nM] | Kd ([5]; label: 5' IRDye 800CW) [nM] | Kd ([1]; label: 5' Cy5) [nM] | Kd ([2]; label: 5' Cy5) [nM] | Kd ([3]; label: 5' Cy5) [nM] | Kd ([4]; label: 5' Cy5) [nM] | Kd ([5]; label: 5' Cy5) [nM]
AUUAUACGUGA (ssRNA) [IR-rpoA-U] | 480 | 252 | 44 | 75 | 69.8 |  |  |  |  | 
AUUAGACGUGA (ssRNA) [Cy5-rpoA-G] |  |  |  |  |  | 187 | 167 | 123 | 105 | 251
AUUACACGUGA (ssRNA) [Cy5-rpoA] |  |  |  |  |  | 231 | 130 | 66 | 96.3 | 112
AUUAAACGUGA (ssRNA) [IR-rpoA-A] | 450 | 560 | 137 | 158 | 65.3 |  |  |  |  | 
